Experimental data published in patent US10801046B2, “Methods and materials for biosynthesizing multifunctional, multivariate molecules via carbon chain modification” (INVISTA NORTH AMERICA S.A.R.L., priority 2016, dated 2020).

Experiments:
[1] = Carboxylate reductase activity, 7-hydroxyheptanoate to 7-hydroxyheptanal, NADPH consumption at 340 nm; format: biochemical; conditions: enhanced by gene product of sfp, 20 min, against empty vector control, FIG. 44
Description: A sequence encoding a His-tag was added to the genes from Mycobacterium marinum, Mycobacterium smegmatis, Segniliparus rugosus, Mycobacterium smegmatis, Mycobacterium massiliense, and Segniliparus rotundus that encode the carboxylate reductases of SEQ ID NOs: 25 (GenBank Accession No. ACC40567.1), 27 (GenBank Accession No. ABK75684.1), 29 (GenBank Accession No. ABK71854.1), 31 (GenBank Accession No. EFV11917.1), 37 (GenBank Accession No. EIV11143.1), and 38 (GenBank Accession No. ADG98140.1) such that N-terminal HIS tagged carboxylate reductases could be produced. Each of the modified genes was cloned into a pET Duet expression vector alongside a sfp gene encoding a His-tagged phosphopantetheine transferase from Bacillus subtilis, both under control of the T7 promoter.
Each expression vector was transformed into a BL21[DE3] E. coli host and the resulting recombinant E. coli strains were cultivated at 37° C. in a 250 mL shake flask culture containing 50 mL LB media and antibiotic selection pressure, with shaking at 230 rpm. Each culture was induced overnight at 37° C. using an auto-induction media.
The pellet from each induced shake flask culture was harvested via centrifugation. Each pellet was resuspended and lysed via sonication. The cell debris was separated from the supernatant via centrifugation. The carboxylate reductases and phosphopantetheine transferase were purified from the supernatant using Ni-affinity chromatography, diluted 10-fold into 50 mM HEPES buffer (pH=7.5) and concentrated via ultrafiltration.
Enzyme activity (i.e., 7-hydroxyheptanoate to 7-hydroxyheptanal) assays were performed in triplicate in a buffer composed of a final concentration of 50 mM HEPES buffer (pH=7.5), 2 mM […], 10 mM MgCl2, 1 mM ATP, and 1 mM NADPH. Each enzyme activity assay reaction was initiated by adding purified carboxylate reductase and phosphopantetheine transferase or the empty vector control to the assay buffer containing the 7-hydroxyheptanoate and then incubated at room temperature for 20 min. The consumption of NADPH was monitored by absorbance at 340 nm.

[2] = Carboxylate reductase activity, N7-acetyl-7-aminoheptanoate to N7-acetyl-7-aminoheptanal, NADPH consumption at 340 nm; format: biochemical; conditions: enhanced by gene product of sfp, 2 mM substrate, 20 min, against empty vector control, FIG. 45
Description: The activity of each of the N-terminal His-tagged carboxylate reductases of SEQ ID NOs: 29 (GenBank Accession No. ABK71854.1), 37 (Genbank Accession No. EIV11143.1), and 38 (GenBank Accession No. ADG98140.1) (see Examples 4) for converting N7-acetyl-7-aminoheptanoate to N7-acetyl-7-aminoheptanal was assayed in triplicate in a buffer composed of a final concentration of 50 mM HEPES buffer (pH=7.5), 2 mM N7-acetyl-7-aminoheptanoate, 10 mM MgCl2, 1 mM ATP, and 1 mM NADPH. The assays were initiated by adding purified carboxylate reductase and phosphopantetheine transferase or the empty vector control to the assay buffer containing the N7-acetyl-7-aminoheptanoate then incubated at room temperature for 20 min. The consumption of NADPH was monitored by absorbance at 340 nm.

Molecule | acceptance of 7-hydroxyheptanoate as substrate, forming 7-hydroxyheptanal [1] | acceptance of N7-acetyl-7-aminoheptanoate as substrate, forming N7-acetyl-7-aminoheptanal [2]
SEQ ID NO: 29: Mycobacterium smegmatis carboxylate reductase (protein, Mycobacterium smegmatis (strain ATCC 700084 / mc(2)155), Mycobacterium smegmatis carboxylate reductase) MTSDVHDATDGVTETALDDEQSTRRIAELYATDPEFAAAAPLPAVVDAAHKPGLRLAEILQTLFTGYGDRPALGYRARELATDEGGRTVTRLLPRFDTLTYAQVWSRVQAVAAALRHNFAQPIYPGDAVATIGFASPDYLTLDLVCAYLGLVSVPLQHNAPVSRLAPILAEVEPRILTVSAEYLDLAVESVRDVNSVSQLVVFDHHPEVDDHRDALARAREQLAGKGIAVTTLDAIADEGAGLPAEPIYTADHDQRLAMILYTSGSTGAPKGAMYTEAMVARLWTMSFITGDPTPVINVNFMPLNHLGGRIPISTAVQNGGTSYFVPESDMSTLFEDLALVRPTELGLVPRVADMLYQHHLATVDRLVTQGADELTAEKQAGAELREQVLGGRVITGFVSTAPLAAEMRAFLDITLGAHIVDGYGLTETGAVTRDGVIVRPPVIDYKLIDVPELGYFSTDKPYPRGELLVRSQTLTPGYYKRPEVTASVFDRDGYYHTGDVMAETAPDHLVYVDRRNNVLKLAQGEFVAVANLEAVFSGAALVRQIFVYGNSERSFLLAVVVPTPEALEQYDPAALKAALADSLQRTARDAELQSYEVPADFIVETEPFSAANGLLSGVGKLLRPNLKDRYGQRLEQMYADIAATQANQLRELRRAAATQPVIDTLTQAAATILGTGSEVASDAHFTDLGGDSLSALTLSNLLSDFFGFEVPVGTIVNPATNLAQLAQHIEAQRTAGDRRPSFTTVHGADATEIRASELTLDKFIDAETLRAAPGLPKVTTEPRTVLLSGANGWLGRFLTLQWLERLAPVGGTLITIVRGRDDAAARARLTQAYDTDPELSRRFAELADRHLRVVAGDIGDPNLGLTPEIWHRLAAEVDLVVHPAALVNHVLPYRQLFGPNVVGTAEVIKLALTERIKPVTYLSTVSVAMGIPDFEEDGDIRTVSPVRPLDGGYANGYGNSKWAGEVLLREAHDLCGLPVATFRSDMILAHPRYRGQVNVPDMFTRLLLSLLITGVAPRSFYIGDGERPRAHYPGLTVDFVAEAVTTLGAQQREGYVSYDVMNPHDDGISLDVFVDWLIRAGHPIDRVDDYDDWVRRFETALTALPEKRRAQTVLPLLHAFRAPQAPLRGAPEPTEVFHAAVRTAKVGPGDIPHLDEALIDKYIRDLREFGLI | accepted 7-hydroxyheptanoate as substrate | accepted N7-acetyl-7-aminoheptanoate as substrate
SEQ ID NO: 37: Mycobacterium massiliense carboxylate reductase (protein, Mycobacterium abscessus subsp. bolletii 2B-0307, Mycobacterium massiliense carboxylate reductase) MTNETNPQQEQLSRRIESLRESDPQFRAAQPDPAVAEQVLRPGLHLSEAIAALMTGYAERPALGERARELVIDQDGRTTLRLLPRFDTTTYGELWSRTTSVAAAWHHDATHPVKAGDLVATLGFTSIDYTVLDLAIMILGGVAVPLQTSAPASQWTTILAEAEPNTLAVSIELIGAAMESVRATPSIKQVVVFDYTPEVDDQREAFEAASTQLAGTGIALETLDAVIARGAALPAAPLYAPSAGDDPLALLIYTSGSTGAPKGAMHSENIVRRWWIREDVMAGTENLPMIGLNFMPMSHIMGRGTLTSTLSTGGTGYFAASSDMSTLFEDMELIRPTALALVPRVCDMVFQRFQTEVDRRLASGDTASAEAVAAEVKADIRDNLFGGRVSAVMVGSAPLSEELGEFIESCFELNLTDGYGSTEAGMVFRDGIVQRPPVIDYKLVDVPELGYFSTDKPHPRGELLLKTDGMFLGYYKRPEVTASVFDADGFYMTGDIVAELAHDNIEIIDRRNNVLKLSQGEFVAVATLEAEYANSPVVHQIYVYGSSERSYLLAVVVPTPEAVAAAKGDAAALKTTIADSLQDIAKEIQLQSYEVPRDFIIEPQPFTQGNGLLTGIAKLARPNLKAHYGPRLEQMYAEIAEQQAAELRALHGVDPDKPALETVLKAAQALLGVSSAELAADAHFTDLGGDSLSALSFSDLLRDIFAVEVPVGVIVSAANDLGGVAKFVDEQRHSGGTRPTAETVHGAGHTEIRAADLTLDKFIDEATLHAAPSLPKAAGIPHTVLLTGSNGYLGHYLALEWLERLDKTDGKLIVIVRGKNAEAAYGRLEEAFDTGDTELLAHFRSLADKHLEVLAGDIGDPNLGLDADTWQRLADTVDVIVHPAALVNHVLPYNQLFGPNVVGTAEIIKLAITTKIKPVTYLSTVAVAAYVDPTTFDEESDIRLISAVRPIDDGYANGYGNAKWAGEVLLREAHDLCGLPVAVFRSDMILAHSRYTGQLNVPDQFTRLILSLIATGIAPGSFYQAQTTGERPLAHYDGLPGDFTAEAITTLGTQVPEGSEGFVTYDCVNPHADGISLDNFVDWLIEAGYPIARIDNYTEWFTRFDTAIRGLSEKQKQHSLLPLLHAFEQPSAAENHGVVPAKRFQHAVQAAGIGPVGQDGTTDIPHLSRRLIVKYAKDLEQLGLL | accepted 7-hydroxyheptanoate as substrate | accepted N7-acetyl-7-aminoheptanoate as substrate
